B1: FAM120A (protein, UniProt Q9NZB2 1-1118, looked up)
Constitutive coactivator of …: MGVQGFQDYIEKHCPSAVVPVELQKLARGSLVGGGRQRPPQTPLRLLVDADNCLHRLYGGFYTDWVSGGQWNHMLGYLAALAKACFGGNIELFVFFNGALEKARLHEWVKRQGNERQTAQQIVSHVQNKGTPPPKVWFLPPVCMAHCIRLALIRFHVKVAQSIEDHHQEVIGFCRENGFHGLVAYDSDYALCNIPYYFSAHALKLSRNGKSLTTSQYLMHEVAKQLDLNPNRFPIFAALLGNHILPDEDLASFHWSLLGPEHPLASLKVRAHQLVLPPCDVVIKAVADYVRNIQDTSDLDAIAKDVFQHSQSRTDDKVIRFKRAIGYYSATSKPMSFHPPHYLAARPGPFGMPGMVPPHVPPQMLNIPQTSLQAKPVAPQVPSPGGAPGQGPYPYSLSEPAPLTLDTSGKNLTEQNSYSNIPHEGKHTPLYERSSPINPAQSGSPNHVDSAYFPGSSTSSSSDNDEGSGGATNHISGNKIGWEKTGSHSEPQARGDPGDQTKAEGSSTASSGSQLAEGKGSQMGTVQPIPCLLSMPTRNHMDITTPPLPPVAPEVLRVAEHRHKKGLMYPYIFHVLTKGEIKIAVSIEDEANKDLPPAALLYRPVRQYVYGVLFSLAESRKKTERLAFRKNRLPPEFSPVIIKEWAAYKGKSPQTPELVEALAFREWTCPNLKRLWLGKAVEDKNRRMRAFLACMRSDTPAMLNPANVPTHLMVLCCVLRYMVQWPGARILRRQELDAFLAQALSPKLYEPDQLQELKIENLDPRGIQLSALFMSGVDMALFANDACGQPIPWEHCCPWMYFDGKLFQSKLLKASREKTPLIDLCDGQADQAAKVEKMRQSVLEGLSFSRQSHTLPFPPPPALPFYPASAYPRHFGPVPPSQGRGRGFAGVCGFGGPYGETVATGPYRAFRVAAASGHCGAFSGSDSSRTSKSQGGVQPIPSQGGKLEIAGTVVGHWAGSRRGRGGRGPFPLQVVSVGGPARGRPRGVISTPVIRTFGRGGRYYGRGYKNQAAIQGRPPYAASAEEVAKELKSKSGESKSSAMSSDGSLAENGVMAEEKPAPQMNGSTGDARAPSHSESALNNDSKTCNTNPHLNALSTDSACRREAALEAAVLNKEE
B2: LARP7 (protein, UniProt Q4G0J3 1-582, looked up)
La-related protein 7: METESGNQEKVMEEESTEKKKEVEKKKRSRVKQVLADIAKQVDFWFGDANLHKDRFLREQIEKSRDGYVDISLLVSFNKMKKLTTDGKLIARALRSSAVVELDLEGTRIRRKKPLGERPKDEDERTVYVELLPKNVNHSWIERVFGKCGNVVYISIPHYKSTGDPKGFAFVEFETKEQAAKAIEFLNNPPEEAPRKPGIFPKTVKNKPIPALRVVEEKKKKKKKKGRMKKEDNIQAKEENMDTSNTSISKMKRSRPTSEGSDIESTEPQKQCSKKKKKRDRVEASSLPEVRTGKRKRSSSEDAESLAPRSKVKKIIQKDIIKEASEASKENRDIEISTEEEKDTGDLKDSSLLKTKRKHKKKHKERHKMGEEVIPLRVLSKSEWMDLKKEYLALQKASMASLKKTISQIKSESEMETDSGVPQNTGMKNEKTANREECRTQEKVNATGPQFVSGVIVKIISTEPLPGRKQVRDTLAAISEVLYVDLLEGDTECHARFKTPEDAQAVINAYTEINKKHCWKLEILSGDHEQRYWQKILVDRQAKLNQPREKKRGTEKLITKAEKIRLAKTQQASKHIRFSEYD
B3: NKRF (protein, UniProt O15226 1-690, looked up)
NF-kappa-B-repressing factor: MEKILQMAEGIDIGEMPSYDLVLSKPSKGQKRHLSTCDGQNPPKKQAGSKFHARPRFEPVHFVASSSKDERQEDPYGPQTKEVNEQTHFASMPRDIYQDYTQDSFSIQDGNSQYCDSSGFILTKDQPVTANMYFDSGNPAPSTTSQQANSQSTPEPSPSQTFPESVVAEKQYFIEKLTATIWKNLSNPEMTSGSDKINYTYMLTRCIQACKTNPEYIYAPLKEIPPADIPKNKKLLTDGYACEVRCQNIYLTTGYAGSKNGSRDRATELAVKLLQKRIEVRVVRRKFKHTFGEDLVVCQIGMSSYEFPPALKPPEDLVVLGKDASGQPIFNASAKHWTNFVITENANDAIGILNNSASFNKMSIEYKYEMMPNRTWRCRVFLQDHCLAEGYGTKKTSKHAAADEALKILQKTQPTYPSVKSSQCHTGSSPRGSGKKKDIKDLVVYENSSNPVCTLNDTAQFNRMTVEYVYERMTGLRWKCKVILESEVIAEAVGVKKTVKYEAAGEAVKTLKKTQPTVINNLKKGAVEDVISRNEIQGRSAEEAYKQQIKEDNIGNQLLRKMGWTGGGLGKSGEGIREPISVKEQHKREGLGLDVERVNKIAKRDIEQIIRNYARSESHTDLTFSRELTNDERKQIHQIAQKYGLKSKSHGVGHDRYLVVGRKRRKEDLLDQLKQEGQVGHYELVMPQAN

System: GFP-tagged PRPF40A-Nter-MUT
Assay: SILAC GFP-immunoprecipitation with quantitative mass spectrometry, mutant construct
Assay type: binding, human (Hela cells)
Conditions: quantitative MS, Hela cells, protein by gene name
Summary of the method: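 GFP-tagged PRPF40A N-terminal region (isoform 2, residues 1–221) with PPVP/PALPP motifs mutated to alanines, transiently expressed 24 h in SILAC-labelled HeLa cells alongside GFP control. Lysates (2.5 mg) pulled down on GFP-nanobody beads 1 h at 4 °C; pooled eluates trypsin-digested and quantified by LC-MS/MS on Orbitrap.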

Molecule | Immunoprecipitation enrichment MUT vs WT, log2 FC
B1 | 1.247
B2 | 1.221
B3 | 1.452
